Results published in patent publication US20100291137A1 (GlaxoSmithKline, published 2010).

Target: the molecule itself
Experiment: analytical ultracentrifugation and chemical cross-linking

B1: refolded NspA (recombinant mature NspA of Neisseria meningitidis strain H44/76, without the 19 amino acid signal peptide) (other)
chain: EGASGFYVQADAAHAKASSSLGSAKGFSPRISAGYRINDLRFAVDYTRYKNYKAPSTDFKLYSIGASAIYDFDTQSPVKPYLGARLSLNRASVDLGGSDSFSQTSIGLGVLTGVSYAVTPNVDLDAGYRYNYIGKVNTVKNVRSGELSAGVRVKF
binding result: no binding
